Measurements from patent publication US7354588B1, “Functional derivatives of ICAM-1 with altered ability to bind LFA-1 or HRV” (Dana Farber Cancer Institute, priority 1987, dated 2008).
Where a chain is given by its changes, count along the chain named. Names may count otherwise.

B1: Q27/L: ICAM-1 substitution mutant, Q27 to L (protein, UniProt P05362 28-532, looked up, variant Q27L)
Intercellular adhesion …: QTSVSPSKVILPRGGSVLVTCSTSCDLPKLLGIETPLPKKELLLPGNNRKVYELSNVQEDSQPMCYSNCPDGQSTAKTFLTVYWTPERVELAPLPSWQPVGKNLTLRCQVEGGAPRANLTVVLLRGEKELKREPAVGEPAEVTTTVLVRRDHHGANFSCRTELDLRPQGLELFENTSAPYQLQTFVLPATPPQLVSPRVLEVDTQGTVVCSLDGLFPVSEAQVHLALGDQRLNPTVTYGNDSFSAKASVSVTAEDEGTQRLTCAVILGNQSQETLQTVTIYSFPAPNVILTKPEVSEGTEVTVKCEAHPRAKVTLNGVPAQPLGPRAQLLLKATPEDNGRSFSCSATLEVAGQLIHKNQTRELRVLYGPRLDERDCPGNWTWPENSQQTPMCQAWGNPLPELKCLKDGTFPLPIGESVTVTRDLEGTYLCRARSTQGEVTRKVTVNVLSPRYEIVIITVVAAAVIMGTAGLSTYLYNRQRKIKKYRLQQAQKGTPMKPNTQATPP
B2: E90/K: ICAM-1 substitution mutant, E90 to K (protein, UniProt P05362 28-532, looked up, variant E90K)
Intercellular adhesion …: B1 Intercellular adhesion … with L27Q, E90K
B3: N175/A: ICAM-1 mutant, glycosylation site N175 replaced with A (protein, UniProt P05362 28-532, looked up, variant N175A)
Intercellular adhesion …: B1 Intercellular adhesion … with L27Q, N175A
B4: K39KE/ERQ: ICAM-1 substitution mutant, K39KE to ERQ (protein, UniProt P05362 28-532, looked up, variant K39E K40R E41Q)
Intercellular adhesion …: B1 Intercellular adhesion … with L27Q, K39E, K40R, E41Q
B5: R49KV/EKL: ICAM-1 substitution mutant, R49KV to EKL (protein, UniProt P05362 28-532, looked up, variant R49E V51L)
Intercellular adhesion …: B1 Intercellular adhesion … with L27Q, R49E, V51L
B6: Q1T/KA: ICAM-1 substitution mutant, Q1T to KA (protein, UniProt P05362 28-532, looked up, variant Q1K T2A)
Intercellular adhesion …: B1 Intercellular adhesion … with Q1K, T2A, L27Q
B7: N118/Q: ICAM-1 domain 2 substitution mutant affecting an N-linked glycosylation site (protein, UniProt P05362 28-532, looked up, variant N118Q)
Intercellular adhesion …: B1 Intercellular adhesion … with L27Q, N118Q
B8: Q73/T: ICAM-1 substitution mutant, Q73 to T (protein, UniProt P05362 28-532, looked up, variant Q73T)
Intercellular adhesion …: B1 Intercellular adhesion … with L27Q, Q73T
B9: N156/E: ICAM-1 domain 2 substitution mutant affecting an N-linked glycosylation site (protein, UniProt P05362 28-532, looked up, variant N156E)
Intercellular adhesion …: B1 Intercellular adhesion … with L27Q, N156E
B10: Q73/H: ICAM-1 substitution mutant, Q73 to H (protein, UniProt P05362 28-532, looked up, variant Q73H)
Intercellular adhesion …: B1 Intercellular adhesion … with L27Q, Q73H
B11: S177/G: ICAM-1 domain 2 substitution mutant affecting an N-linked glycosylation site (protein, UniProt P05362 28-532, looked up, variant S177G)
Intercellular adhesion …: B1 Intercellular adhesion … with L27Q, S177G

test system: CL203 mAb; experiment: Indirect immunofluorescence flow cytofluorometry: mAb CL203 binding to COS cells expressing ICAM-1 mutants (SLFI, % WT); type: cell-based; settings: COS cells expressing the mutant, relative to wild type
Experimental: (§1) For HRV binding studies, COS cells were reseeded in a 24 well plate. One day later, the confluent monolayer was washed twice with 1 ml of RPMI 1640/10 mM MgCl2/25 mM Hepes pH 7.3 (rhinovirus-14 buffer). Transfected COS cells were labeled with 51Cr for binding to LFA-1 coated plastic as previously described (Staunton, D. E., et al., Nature 339:61-64 (1989). Immunoprecipitation and indirect immunofluorescence was performed using ICAM-1 MAb RR1/1 (Rothlein, R., et al., J. Immunol. 137:1270-1274 (1986)), R6.5 (Rothlein, R., et al., J. Immunol. 141:1665-1669 (1988)), LB-1 (Clark, E. A., et al., Hum. Immunol. 16:100-113 (1986)) and CL203 (Maio, M., J. Immunol. 143:181-188 (1989), all of which references are incorporated herein by reference).
(§2) Binding of RR1, R6.5, and LB-2 mAb was normalized to binding of CL203 mAb using Specific Linear Fluorescence Intensity (SLFI): % CL203=(mAbSLFI)×100)/CL203mABSLFI
(§3) In Table 25, the notation for the mutations uses the one-letter code for the wild-type sequence followed by a slash and the one-letter code for the corresponding mutant sequence. The position of the first amino acid within the sequence is indicated. Wild type residues precede the slash followed by the residues they were substituted for in the mutant. COS cells expressing ICAM-1 mutants were tested for adherence to LFA-1 coated plastic and for binding 35S met-labeled HRV14. LFA-1 and HRV14 binding is normalized for percent of cells expressing mutant ICAM-1 and for binding of wild type expressing cells. Binding is presented as mean and standard error (SE) for multiple experiments (n). Effects of two-fold or greater were reproducible in LFA-1, HRV and mAb binding assays and thus considered significant (bold and underlined). The specific linear fluorescence intensity (SLFI) of CL203 for each mutant is normalized to that of wild type CL203 SLFI (% WT) as discussed above. The SLFI of RR1/1, R6.5 and LB-2 SLFI is normalized to the CL203 SLFI of the mutant (% CL203) as described above.

Row | Molecule | binding of MAb CL203 (in words)
1 | B1 | specifically reduced level of expression
2 | B2 | specifically reduced level of expression

same assay, conditions: SLFI of CL203 for mutant normalized to wild type CL203 SLFI; level of expression

Row | Molecule | Cl203 % WT (SLFI) [% WT]
3 | B3 | 80
4 | B4 | 84
5 | B5 | 233
6 | B6 | 230
7 | B7 | 139
8 | B8 | 218
9 | B9 | 182
10 | B1 | 33
11 | B10 | 139
12 | B2 | 29
13 | B11 | 87

test system: R6.5 mAb; experiment: Indirect immunofluorescence flow cytofluorometry: mAb R6.5 binding to COS cells expressing ICAM-1 mutants (SLFI, % CL203); type: cell-based; settings: SLFI normalized to CL203 SLFI of the mutant
Experimental: as §1, §2, §3

Row | Molecule | SLFI (% CL203) R6.5 [% CL203]
14 | B3 | 175
15 | B4 | 93
16 | B5 | 97
17 | B6 | 115
18 | B7 | 85
19 | B8 | 86
20 | B9 | 95
21 | B1 | 75
22 | B10 | 80
23 | B2 | 123
24 | B11 | 118

test system: LB-2 mAb; experiment: Indirect immunofluorescence flow cytofluorometry: mAb LB-2 binding to COS cells expressing ICAM-1 mutants (SLFI, % CL203); type: cell-based; settings: SLFI normalized to CL203 SLFI of the mutant
Experimental: as §1, §2, §3

Row | Molecule | SLFI (% CL203) LB-2 [% CL203]
25 | B3 | 150
26 | B4 | 87
27 | B5 | 52
28 | B6 | 113
29 | B7 | 93
30 | B8 | 114
31 | B9 | 95
32 | B1 | 125
33 | B10 | 80
34 | B2 | 108
35 | B11 | 90

test system: HRV14; experiment: Binding of [^35S]-Met labeled HRV14 to COS cells expressing ICAM-1 mutants; type: cell-based, human rhinovirus 14; settings: 35S met-labeled HRV14 binding to COS cells expressing ICAM-1 mutant; normalized for percent of cells expressing mutant and for wild type binding; mean

Row | Molecule | HRV Binding % [%]
36 | B3 | 129
37 | B4 | 61
38 | B5 | 49
39 | B6 | 11
40 | B7 | 110
41 | B8 | 133
42 | B9 | 107
43 | B1 | 57
44 | B10 | 117
45 | B2 | 50
46 | B11 | 66

same assay, conditions: COS cells expressing the mutant, relative to wild type

Row | Molecule | decrease in HRV14 binding | HRV14 binding of ICAM-1 mutant (in words)
47 | B4 | two-fold | –
48 | B5 | two-fold | –
49 | B6 | ten-fold | –
50 | B10 | – | weak or a non-detectable affect on HRV binding

test system: RR1/1 mAb; experiment: Indirect immunofluorescence flow cytofluorometry: mAb RR1/1 binding to COS cells expressing ICAM-1 mutants (SLFI, % CL203); type: cell-based; settings: SLFI normalized to CL203 SLFI of the mutant
Experimental: as §1, §2, §3

Row | Molecule | SLFI (% CL203) RR/1 [% CL203]
51 | B3 | 162
52 | B4 | 47
53 | B5 | 103
54 | B6 | 94
55 | B7 | 93
56 | B8 | 71
57 | B9 | 84
58 | B1 | 75
59 | B10 | 21
60 | B2 | 100
61 | B11 | 136

target: T1, LFA-1 (Homo sapiens, UniProt P05107+P20701); experiment: Adherence of COS cells expressing ICAM-1 or ICAM-1 mutants to plastic-bound purified LFA-1; type: cell-based; settings: COS cells expressing ICAM-1 mutant adhering to LFA-1 coated plastic; normalized for percent of cells expressing mutant and for wild type binding; mean
T1 construct: endogenous in cells
T1 sequence (P20701 26-1170): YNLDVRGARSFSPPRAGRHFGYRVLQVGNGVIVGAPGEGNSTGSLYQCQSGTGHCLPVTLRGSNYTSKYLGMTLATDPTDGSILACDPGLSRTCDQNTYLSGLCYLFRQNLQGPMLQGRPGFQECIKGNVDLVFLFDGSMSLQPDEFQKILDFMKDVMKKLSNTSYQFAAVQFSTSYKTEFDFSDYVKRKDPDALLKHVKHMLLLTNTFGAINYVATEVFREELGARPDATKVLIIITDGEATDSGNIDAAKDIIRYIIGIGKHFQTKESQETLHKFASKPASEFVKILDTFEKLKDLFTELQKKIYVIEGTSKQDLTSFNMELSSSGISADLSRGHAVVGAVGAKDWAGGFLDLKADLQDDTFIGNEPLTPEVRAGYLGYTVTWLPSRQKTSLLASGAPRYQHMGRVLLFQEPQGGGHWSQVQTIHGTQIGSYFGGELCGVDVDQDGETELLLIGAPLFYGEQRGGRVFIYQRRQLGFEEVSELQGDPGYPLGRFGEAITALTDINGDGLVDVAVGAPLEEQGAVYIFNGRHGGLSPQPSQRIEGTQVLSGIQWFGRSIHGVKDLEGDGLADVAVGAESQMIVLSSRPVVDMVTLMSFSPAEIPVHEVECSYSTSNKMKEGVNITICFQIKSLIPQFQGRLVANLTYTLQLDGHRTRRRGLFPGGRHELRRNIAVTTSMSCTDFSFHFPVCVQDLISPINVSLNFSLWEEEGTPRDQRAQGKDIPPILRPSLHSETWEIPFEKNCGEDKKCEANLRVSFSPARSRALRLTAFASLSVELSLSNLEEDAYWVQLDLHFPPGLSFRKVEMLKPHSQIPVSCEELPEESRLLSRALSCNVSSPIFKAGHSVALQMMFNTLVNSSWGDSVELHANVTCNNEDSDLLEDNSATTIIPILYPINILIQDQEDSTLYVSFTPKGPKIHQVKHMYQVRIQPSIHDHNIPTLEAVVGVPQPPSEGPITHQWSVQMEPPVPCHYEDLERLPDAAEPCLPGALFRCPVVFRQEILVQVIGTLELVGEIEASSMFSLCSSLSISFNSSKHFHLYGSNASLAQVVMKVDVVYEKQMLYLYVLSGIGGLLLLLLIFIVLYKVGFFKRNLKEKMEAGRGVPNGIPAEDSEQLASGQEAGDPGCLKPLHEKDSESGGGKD
T1 sequence (P05107 23-769): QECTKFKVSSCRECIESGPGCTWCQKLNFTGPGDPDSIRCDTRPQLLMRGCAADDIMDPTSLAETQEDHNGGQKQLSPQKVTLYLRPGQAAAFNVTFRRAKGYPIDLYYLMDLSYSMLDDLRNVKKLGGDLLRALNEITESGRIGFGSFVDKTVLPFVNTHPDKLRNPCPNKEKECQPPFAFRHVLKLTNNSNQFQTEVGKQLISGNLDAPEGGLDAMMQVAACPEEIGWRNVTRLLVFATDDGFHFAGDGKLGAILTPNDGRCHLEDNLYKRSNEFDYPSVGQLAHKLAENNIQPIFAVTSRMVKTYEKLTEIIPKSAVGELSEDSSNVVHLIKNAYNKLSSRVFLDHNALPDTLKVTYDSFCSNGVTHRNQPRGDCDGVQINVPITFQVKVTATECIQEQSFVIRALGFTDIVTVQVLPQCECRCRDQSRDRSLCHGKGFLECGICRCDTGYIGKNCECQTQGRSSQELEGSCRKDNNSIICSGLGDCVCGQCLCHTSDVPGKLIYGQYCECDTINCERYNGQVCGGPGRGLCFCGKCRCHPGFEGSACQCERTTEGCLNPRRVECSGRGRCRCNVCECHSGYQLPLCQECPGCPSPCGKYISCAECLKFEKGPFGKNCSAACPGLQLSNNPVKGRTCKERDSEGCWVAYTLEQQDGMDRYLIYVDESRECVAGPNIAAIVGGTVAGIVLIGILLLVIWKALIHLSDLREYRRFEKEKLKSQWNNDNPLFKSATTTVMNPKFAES

Row | Molecule | LFA-1 Binding % [%]
62 | B3 | 67
63 | B4 | 99
64 | B5 | 123
65 | B6 | 119
66 | B7 | 54
67 | B8 | 40
68 | B9 | 60
69 | B1 | 37
70 | B10 | 12
71 | B2 | 34
72 | B11 | 59

same assay, conditions: COS cells expressing the mutant, relative to wild type

Row | Molecule | LFA-1 binding of ICAM-1 mutant (in words) | decrease in LFA-1 binding
73 | B3 | did not appear to substantially effect | approximately two-fold
74 | B7 | – | approximately two-fold
75 | B8 | – | two-fold
76 | B9 | – | approximately two-fold
77 | B10 | – | 10 fold
78 | B11 | – | approximately two-fold
